Results published in paper PMC8024323, “Drosophila TNFRs Grindelwald and Wengen bind Eiger with different affinities and promote distinct cellular functions” (Nature Communications, 2021).
Changes are numbered by the printed parent chain. Values belong to the molecule of their own block, whether it stands above or below them.

T1: Strep-Egr^146–409 Asn333Ala (Drosophila melanogaster, UniProt Q8MUJ1-2 146-409, Asn333 with Ala)
T1 construct: also called substitution of the Egr glycosylation site Asn333 with Ala; source: mutation by QuikChange
T1 sequence (looked up): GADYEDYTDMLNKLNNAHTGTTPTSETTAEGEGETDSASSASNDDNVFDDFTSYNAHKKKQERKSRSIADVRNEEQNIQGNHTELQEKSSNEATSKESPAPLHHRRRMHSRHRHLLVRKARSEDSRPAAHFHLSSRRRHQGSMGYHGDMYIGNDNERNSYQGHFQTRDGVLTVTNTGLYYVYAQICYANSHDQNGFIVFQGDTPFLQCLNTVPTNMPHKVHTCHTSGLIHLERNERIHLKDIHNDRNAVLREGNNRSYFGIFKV

T2: Strep-Egr^146–409 (Drosophila melanogaster, UniProt Q8MUJ1-2 146-409)
T2 construct: probably SHuffle cells as for the His6 construct
T2 sequence (looked up): T1 sequence (looked up) with A188N

T3: Grnd^30–97 Asn67Ala (Drosophila melanogaster, UniProt Q9VJ83 30-97, Asn67Ala)
T3 sequence: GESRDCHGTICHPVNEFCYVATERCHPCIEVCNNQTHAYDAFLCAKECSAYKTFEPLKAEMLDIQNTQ

T4: Grnd^30–97 His66Ala (Drosophila melanogaster, UniProt Q9VJ83 30-97, His66Ala)
T4 sequence: T3 sequence with H37A, A38N

T5: Grnd^30–97 Glu52Ala (Drosophila melanogaster, UniProt Q9VJ83 30-97, Glu52Ala)
T5 sequence: T3 sequence with E23A, A38N

B1: Grnd^30–81 (tryptic fragment of the extracellular domain of Grindelwald) (domain or fragment, Drosophila melanogaster, UniProt Q9VJ83 30-81, looked up)
chain: GESRDCHGTICHPVNEFCYVATERCHPCIEVCNNQTHNYDAFLCAKECSAYK
notes: Grindelwald (Grnd), Drosophila melanogaster, residues 30-81; limits assigned by mass spectrometry; models hold residues 34-81 (free) and 31-81 (complex); also called Grnd-ECD; Grnd-CRD
B2: Grnd^30–97 (extracellular domain of Grindelwald) (domain or fragment, Drosophila melanogaster, UniProt Q9VJ83 30-97, looked up)
chain: T3 sequence with A38N
notes: Grindelwald (Grnd), Drosophila melanogaster, extracellular domain, residues 30-97; pETM14 vector; His6-tag removed with PreScission protease; Monomer by static light scattering; also called wild-type Grnd^30–97; source: E. coli SHuffle B cells (NEB), purified (Ni HiTrap, PreScission, Resource-Q); not shown: His6, N-terminal, cleaved
B3: Grnd^30–97 Asn67Ala (domain or fragment, Drosophila melanogaster, UniProt Q9VJ83 30-97, looked up)
chain: T3 sequence
notes: Grindelwald (Grnd), Drosophila melanogaster, extracellular domain, residues 30-97; also called Asn67Ala^Grnd; Grnd-Asn67Ala; source: E. coli SHuffle B cells, purified (as Grnd^30–97); mutation by QuikChange; not shown: His6, N-terminal, cleaved
B4: Grnd^30–97 His66Ala (domain or fragment, Drosophila melanogaster, UniProt Q9VJ83 30-97, looked up)
chain: T3 sequence with H37A, A38N
notes: Grindelwald (Grnd), Drosophila melanogaster, extracellular domain, residues 30-97; also called His66Ala^Grnd; Grnd-His66Ala; source: E. coli SHuffle B cells, purified (as Grnd^30–97); mutation by QuikChange; not shown: His6, N-terminal, cleaved
B5: Grnd^30–97 Glu52Ala (domain or fragment, Drosophila melanogaster, UniProt Q9VJ83 30-97, looked up)
chain: T3 sequence with E23A, A38N
notes: Grindelwald (Grnd), Drosophila melanogaster, extracellular domain, residues 30-97; also called Glu52Ala^Grnd; Grnd-Glu52Ala; source: E. coli SHuffle B cells, purified (as Grnd^30–97); mutation by QuikChange; not shown: His6, N-terminal, cleaved
B6: Egr^146–409 (extracellular portion of Eiger, His6-tagged) (domain or fragment, Drosophila melanogaster, UniProt Q8MUJ1-2 146-409, looked up)
chain: T1 sequence (looked up) with A188N
notes: Cloned in a pET43 vector; Trimer by static light scattering; also called Egr/TNF; Egr extracellular domain; source: E. coli SHuffle cells, purified (HiTrap chelating Ni column, Superdex-200 SEC)
B7: Egr^269–409 (TNF-homology domain of Eiger, tryptic fragment) (domain or fragment, Drosophila melanogaster, UniProt Q8MUJ1-2 269-409, looked up)
chain: DSRPAAHFHLSSRRRHQGSMGYHGDMYIGNDNERNSYQGHFQTRDGVLTVTNTGLYYVYAQICYNNSHDQNGFIVFQGDTPFLQCLNTVPTNMPHKVHTCHTSGLIHLERNERIHLKDIHNDRNAVLREGNNRSYFGIFKV
notes: Trimer in the crystal (threefold crystallographic symmetry); also called Egr-TNF; TNF domain of Egr

Assays:
[1] = target: Egr^146–409 (extracellular portion of Eiger, His6-tagged) (Drosophila melanogaster) (UniProt Q8MUJ1); experiment: ITC; MicroCal PEAQ-ITC, 25 °C, 0.02 M Tris-HCl pH 8.0, 0.3 M NaCl; Grnd^30–97 at 100–340 μM titrated into 8 μM Egr^146–409; Wgn^78–201 at 4.5 mM titrated into 410 μM Egr^146–409; single-site fit
[2] = target: B7; experiment: SEC; 30 μM Egr^146–409 incubated with Grnd^30–97 in a 1:1.3 molar ratio, treated with trypsin, loaded on a Superdex-5/150 column; fractions on Coomassie SDS-PAGE; conditions: both partners purified
[3] = target: B6; experiment: ITC; MicroCal PEAQ-ITC, 25 °C, 0.02 M Tris-HCl pH 8.0, 0.3 M NaCl; Grnd^30–97 at 100–340 μM titrated into 8 μM Egr^146–409; Wgn^78–201 at 4.5 mM titrated into 410 μM Egr^146–409; single-site fit; conditions: both partners purified
[4] = target: T1, Strep-Egr^146–409 Asn333Ala; experiment: pull-down; 2 μM strep-tagged Egr^146–409 adsorbed on Strep-tactin beads, 10 μM Grnd^30–97 in solution, 1 h at 4 °C, 0.01 M Hepes pH 7.5, 0.1 M NaCl, 5% glycerol, 0.05% Tween, 0.5 mM EDTA; Coomassie staining; conditions: both partners purified
Strep-Egr^146–409 = target: T2, Strep-Egr^146–409; experiment: as above; conditions: both partners purified
[5] = target: the molecule itself; experiment: SEC-MALS; static light scattering, Viscotek GPCmax/TDA with a Superdex 200-10/300 increase column, 0.02 M Tris-HCl pH 8.0, 0.3 M NaCl, 5% glycerol; about 75 μL at about 2 mg/mL (Egr alone and the two complexes)
Grnd^30–97 Asn67Ala = target: T3, Grnd^30–97 Asn67Ala; experiment: ITC
Grnd^30–97 His66Ala = target: T4, Grnd^30–97 His66Ala; experiment: ITC
Grnd^30–97 Glu52Ala = target: T5, Grnd^30–97 Glu52Ala; experiment: ITC
[6] = target: the molecule itself; experiment: crystal structure; Egr^269–409:Grnd^30–81 complex, 2.02 Å, space group P321, one 1:1 complex per asymmetric unit, 3:3 hetero-hexamer by the crystallographic threefold axis

Kd [1]: 12 µM
Molecule: Wgn^78–201 (whole extracellular domain of Wengen) (from UniProt Q9VWS4 78-201) (domain or fragment)

Molecule: B1
binding result [2]: binds

Molecule: B2
Kd [3]: ~0.03 µM
binding result [4]: binds

Molecule: B3
binding result [3]: binds
binding result (Strep-Egr^146–409): binds

Molecule: B4
binding result [3]: binds
binding result (Strep-Egr^146–409): binds

Molecule: B5
binding result [3]: binds
binding result (Strep-Egr^146–409): binds

Molecule: B6
stoichiometry N [5]: 3
Kd (Grnd^30–97 Asn67Ala): 4.5 µM
Kd (Grnd^30–97 His66Ala): 4.8 µM
Kd (Grnd^30–97 Glu52Ala): 1.3 µM

Molecule: B7
stoichiometry N [6]: 3
